The target in the assay is purified human coagulation factor Xa (human) (UniProt P00742).

“crude soluble hookworm protein extract (Ancylostoma caninum adult worms) (pool or library)”: the factor Xa activity (chromogenic assay, hydrolysis of Chromozym X) came to 50 % reduction.

The record behind these values is patent US5427937.
